Experiments:
Assay in all cases: fluorescence anisotropy
[1] = target: A3H Hap I K117E/K121E (human, UniProt Q6NTF7 1-200, K117E;K121E)
[2] = target: A3H Hap I K117E (human, UniProt Q6NTF7 1-200, K117E)
[3] = target: A3H Hap II (human, UniProt Q6NTF7 1-181, G105R;K121D;E178D)
[4] = target: A3H Hap VII (human, UniProt Q6NTF7 1-200, G105R)
Sequence of A3H Hap VII (Q6NTF7 whole entry G105R): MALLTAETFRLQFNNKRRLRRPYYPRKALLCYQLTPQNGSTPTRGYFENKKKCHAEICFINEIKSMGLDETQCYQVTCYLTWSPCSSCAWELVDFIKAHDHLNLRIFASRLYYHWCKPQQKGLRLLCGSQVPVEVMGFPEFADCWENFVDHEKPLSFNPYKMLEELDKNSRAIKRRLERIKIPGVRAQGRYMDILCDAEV

Sequence of A3H Hap I K117E (Q6NTF7 whole entry K117E): as the sequence (Q6NTF7 whole entry G105R) above, with R105G, K117E counted along it
Sequence of A3H Hap II (Q6NTF7 1-181 G105R/K121D/E178D): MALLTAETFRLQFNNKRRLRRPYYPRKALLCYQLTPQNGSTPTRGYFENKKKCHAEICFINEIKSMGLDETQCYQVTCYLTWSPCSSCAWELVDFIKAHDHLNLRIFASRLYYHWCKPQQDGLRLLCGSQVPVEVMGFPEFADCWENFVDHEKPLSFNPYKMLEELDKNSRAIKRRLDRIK
Sequence of A3H Hap I K117E/K121E (Q6NTF7 whole entry K117E/K121E): as the sequence (Q6NTF7 whole entry G105R) above, with R105G, K117E, K121E counted along it

B1: 118-nt ssDNA (ssDNA)
DNA: GAATATAGTTTTTAGCTCAAAGTAAGTGAAGATAATTTAGAGAGTTGTAATGTGATATATGTGTATGAAAGATATAAGACTCAAAGTGAAAAGTTGTTAATGTGTGTAGATATGTTAA
modifications: internal fluorescein-dT at position 37
Question: For B1, which Kd [1] is on record?
Answer: 1240 ± 88 nM

Question: What about the Kd [2] of the same binder?
Answer: 3000 ± 1770 nM

Question: What about the Kd [3] of the same binder?
Answer: 492 ± 28 nM

Question: What about the Kd [4] of the same binder?
Answer: 522 ± 4 nM
